Results reported in US20250101074A1 (Affibody, published 2025).

Experiments:
Assay in all cases: SPR (Biacore), PEP07843 immobilized, analyte protein injected
[1] = molecular target: T1, human IL-17A/F heterodimer (human, UniProt Q16552 20-155; Q96PD4 31-163, limits assumed)
T1 construct: bought; also called hIL-17A/F
T1 sequence (looked up) 1: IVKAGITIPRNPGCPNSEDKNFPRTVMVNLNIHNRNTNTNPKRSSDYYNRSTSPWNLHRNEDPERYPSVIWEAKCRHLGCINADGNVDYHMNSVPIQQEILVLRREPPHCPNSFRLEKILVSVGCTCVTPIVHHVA
T1 sequence (looked up) 2: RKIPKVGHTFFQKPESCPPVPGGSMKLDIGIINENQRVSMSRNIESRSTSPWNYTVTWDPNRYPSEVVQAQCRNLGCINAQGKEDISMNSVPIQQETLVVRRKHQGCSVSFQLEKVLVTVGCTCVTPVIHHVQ
Description: (§1) In the binding experiment, HBS-EP was used as running buffer and the flow rate was 30 μl/min. […] The analytes, i.e. the panels of 24 or 12 different proteins, were each diluted in HBS-EP or HBS-EP supplemented with 500 mM NaCl to final concentrations of from 0.4 to 250 nM and injected for 5 min. […] The results were analyzed using the BiaEvaluation software.
(§2) The Z-ABD-Z polypeptides were injected over surfaces containing HSA followed by injection of the analyte proteins.

[2] = molecular target: T2, Human Hemopexin/HPX Protein (human, UniProt P02790 24-462)
T2 sequence (looked up): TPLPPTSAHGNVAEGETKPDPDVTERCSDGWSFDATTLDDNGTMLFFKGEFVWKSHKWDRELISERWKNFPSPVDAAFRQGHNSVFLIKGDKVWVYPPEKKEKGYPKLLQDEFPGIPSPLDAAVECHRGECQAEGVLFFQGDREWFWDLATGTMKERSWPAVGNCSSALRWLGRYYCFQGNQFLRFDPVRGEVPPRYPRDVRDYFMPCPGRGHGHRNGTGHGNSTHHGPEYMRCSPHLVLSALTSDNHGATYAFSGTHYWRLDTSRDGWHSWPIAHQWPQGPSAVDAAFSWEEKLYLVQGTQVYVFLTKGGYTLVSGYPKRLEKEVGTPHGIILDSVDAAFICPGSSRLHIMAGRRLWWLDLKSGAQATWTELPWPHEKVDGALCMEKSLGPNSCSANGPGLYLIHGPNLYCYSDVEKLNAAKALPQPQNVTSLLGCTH
Description: as §1, §2

hIL-17D = molecular target: T3, hIL-17D (human, UniProt Q8TAD2 18-202, limits assumed)
T3 sequence (looked up): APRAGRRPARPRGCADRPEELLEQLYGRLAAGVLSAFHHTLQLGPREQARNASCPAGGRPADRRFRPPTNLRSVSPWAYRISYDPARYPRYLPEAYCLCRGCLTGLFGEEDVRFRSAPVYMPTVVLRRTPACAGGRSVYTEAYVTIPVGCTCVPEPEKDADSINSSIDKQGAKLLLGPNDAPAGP
Description: as §1, §2

IL-1R1 = molecular target: T4, IL-1R1 (UniProt P14778 18-332, limits assumed)
T4 sequence (looked up): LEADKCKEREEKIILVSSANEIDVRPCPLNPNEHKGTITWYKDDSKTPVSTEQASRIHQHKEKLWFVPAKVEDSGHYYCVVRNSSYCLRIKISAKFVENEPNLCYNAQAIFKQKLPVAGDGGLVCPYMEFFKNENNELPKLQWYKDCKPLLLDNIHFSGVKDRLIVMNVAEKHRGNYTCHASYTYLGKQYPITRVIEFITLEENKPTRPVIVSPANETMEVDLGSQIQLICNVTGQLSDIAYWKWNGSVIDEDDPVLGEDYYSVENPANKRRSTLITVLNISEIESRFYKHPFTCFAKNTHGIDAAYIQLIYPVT
Description: as §1, §2

hIL-17E = molecular target: T5, hIL-17E (human, UniProt Q9H293 33-177)
T5 sequence (looked up): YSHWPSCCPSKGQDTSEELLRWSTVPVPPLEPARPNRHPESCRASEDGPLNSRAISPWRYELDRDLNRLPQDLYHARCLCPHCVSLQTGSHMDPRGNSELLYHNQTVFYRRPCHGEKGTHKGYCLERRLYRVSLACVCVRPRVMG
Description: as §1, §2

hIL-17C = molecular target: T6, hIL-17C (human, UniProt Q9P0M4 19-197)
T6 sequence (looked up): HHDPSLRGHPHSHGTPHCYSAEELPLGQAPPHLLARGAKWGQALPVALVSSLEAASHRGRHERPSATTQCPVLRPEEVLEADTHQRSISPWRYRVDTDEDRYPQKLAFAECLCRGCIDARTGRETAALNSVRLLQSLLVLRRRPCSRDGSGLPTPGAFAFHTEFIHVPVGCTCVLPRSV
Description: as §1, §2

hIL23 = molecular target: T7, hIL23 (human, UniProt Q9NPF7 20-189; P29460 23-328)
T7 construct: the two subunits are general knowledge
T7 sequence (looked up) 1: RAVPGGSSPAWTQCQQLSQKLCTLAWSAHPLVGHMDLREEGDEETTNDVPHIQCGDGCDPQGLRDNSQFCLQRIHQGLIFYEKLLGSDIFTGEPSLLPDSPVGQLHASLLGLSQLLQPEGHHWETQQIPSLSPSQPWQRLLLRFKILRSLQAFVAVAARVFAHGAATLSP
T7 sequence (looked up) 2: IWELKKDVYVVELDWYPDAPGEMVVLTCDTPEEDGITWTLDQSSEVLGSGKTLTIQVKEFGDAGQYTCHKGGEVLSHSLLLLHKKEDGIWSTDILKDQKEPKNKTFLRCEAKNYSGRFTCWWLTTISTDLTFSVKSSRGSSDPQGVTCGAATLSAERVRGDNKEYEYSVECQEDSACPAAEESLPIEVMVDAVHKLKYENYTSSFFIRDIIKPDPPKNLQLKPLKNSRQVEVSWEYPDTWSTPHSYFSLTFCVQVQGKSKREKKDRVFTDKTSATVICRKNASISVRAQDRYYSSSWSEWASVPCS
Description: as §1, §2

hIL-17B = molecular target: T8, hIL-17B (human, UniProt Q9UHF5 21-180)
T8 sequence (looked up): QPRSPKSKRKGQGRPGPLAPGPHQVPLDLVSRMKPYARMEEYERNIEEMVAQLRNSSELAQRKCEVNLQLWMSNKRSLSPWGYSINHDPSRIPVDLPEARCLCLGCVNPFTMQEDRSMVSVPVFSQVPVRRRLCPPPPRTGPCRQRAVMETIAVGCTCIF
Description: as §1, §2

[3] = molecular target: Alpha-1-antitrypsin (SERPINA1 Human) (human, UniProt P01009 25-418)
Description: as §1, §2

Measured: binding result

Chain of Alpha-1-antitrypsin (SERPINA1 Human) (P01009 25-418 limits assumed): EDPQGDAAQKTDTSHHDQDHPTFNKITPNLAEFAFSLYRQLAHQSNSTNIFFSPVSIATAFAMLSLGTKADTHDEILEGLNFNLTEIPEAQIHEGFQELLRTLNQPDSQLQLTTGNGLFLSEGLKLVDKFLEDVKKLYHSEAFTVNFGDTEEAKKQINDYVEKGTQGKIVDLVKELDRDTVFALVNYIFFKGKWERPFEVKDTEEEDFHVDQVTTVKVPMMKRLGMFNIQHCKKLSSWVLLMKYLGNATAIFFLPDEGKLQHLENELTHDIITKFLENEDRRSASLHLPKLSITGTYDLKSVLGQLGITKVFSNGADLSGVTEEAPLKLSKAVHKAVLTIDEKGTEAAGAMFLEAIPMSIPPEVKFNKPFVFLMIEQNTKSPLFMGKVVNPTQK

GSSLAEAKEAANAELDSYGVSDFYKRLIDKAKTVEGVEALKDAILAALP (designed binder) [ABD variant PEP07843]
no binding (tested: 50, 250 nM): all assays above
